Assay results taken from patent US20180009871A1 (INTARCIA THERAPEUTICS, published 2018).
Where no end group is shown, it is not given here. [ ]: non-standard residue; d: D form. Aib = CC(C)(N)C(=O)O

B1: Compound A31 (peptide)
peptide: YSHGTFTSDYSKYLD[Aib]KRAQEFV[Aib]WLEDEPESGAPPPS-OH
modifications: N-terminus assumed
SMILES: CC(C)C[C@H](NC(=O)[C@H](Cc1ccc(O)cc1)NC(=O)[C@H](CCCCN)NC(=O)[C@H](CO)NC(=O)[C@H](Cc1ccc(O)cc1)NC(=O)[C@H](CC(=O)O)NC(=O)[C@H](CO)NC(=O)[C@@H](NC(=O)[C@H](Cc1ccccc1)NC(=O)[C@@H](NC(=O)CNC(=O)[C@H](Cc1c[nH]cn1)NC(=O)[C@H](CO)NC(=O)[C@@H](N)Cc1ccc(O)cc1)[C@@H](C)O)[C@@H](C)O)C(=O)N[C@@H](CC(=O)O)C(=O)NC(C)(C)C(=O)N[C@@H](CCCCN)C(=O)N[C@@H](CCCNC(=N)N)C(=O)N[C@@H](C)C(=O)N[C@@H](CCC(N)=O)C(=O)N[C@@H](CCC(=O)O)C(=O)N[C@@H](Cc1ccccc1)C(=O)N[C@H](C(=O)NC(C)(C)C(=O)N[C@@H](Cc1c[nH]c2ccccc12)C(=O)N[C@@H](CC(C)C)C(=O)N[C@@H](CCC(=O)O)C(=O)N[C@@H](CC(=O)O)C(=O)N[C@@H](CCC(=O)O)C(=O)N1CCC[C@H]1C(=O)N[C@@H](CCC(=O)O)C(=O)N[C@@H](CO)C(=O)NCC(=O)N[C@@H](C)C(=O)N1CCC[C@H]1C(=O)N1CCC[C@H]1C(=O)N1CCC[C@H]1C(=O)N[C@@H](CO)C(=O)O)C(C)C
B2: Compound A32 (peptide)
peptide: YTHGTFTSDYSKWLD[Aib]KRAQEFV[Aib]WLEDEPSSGAPPPS-OH
modifications: N-terminus assumed
SMILES: CC(C)C[C@H](NC(=O)[C@H](Cc1c[nH]c2ccccc12)NC(=O)[C@H](CCCCN)NC(=O)[C@H](CO)NC(=O)[C@H](Cc1ccc(O)cc1)NC(=O)[C@H](CC(=O)O)NC(=O)[C@H](CO)NC(=O)[C@@H](NC(=O)[C@H](Cc1ccccc1)NC(=O)[C@@H](NC(=O)CNC(=O)[C@H](Cc1c[nH]cn1)NC(=O)[C@@H](NC(=O)[C@@H](N)Cc1ccc(O)cc1)[C@@H](C)O)[C@@H](C)O)[C@@H](C)O)C(=O)N[C@@H](CC(=O)O)C(=O)NC(C)(C)C(=O)N[C@@H](CCCCN)C(=O)N[C@@H](CCCNC(=N)N)C(=O)N[C@@H](C)C(=O)N[C@@H](CCC(N)=O)C(=O)N[C@@H](CCC(=O)O)C(=O)N[C@@H](Cc1ccccc1)C(=O)N[C@H](C(=O)NC(C)(C)C(=O)N[C@@H](Cc1c[nH]c2ccccc12)C(=O)N[C@@H](CC(C)C)C(=O)N[C@@H](CCC(=O)O)C(=O)N[C@@H](CC(=O)O)C(=O)N[C@@H](CCC(=O)O)C(=O)N1CCC[C@H]1C(=O)N[C@@H](CO)C(=O)N[C@@H](CO)C(=O)NCC(=O)N[C@@H](C)C(=O)N1CCC[C@H]1C(=O)N1CCC[C@H]1C(=O)N1CCC[C@H]1C(=O)N[C@@H](CO)C(=O)O)C(C)C
B3: Compound A33 (peptide)
peptide: YSHGTFTSDHSKWLD[Aib]KRAQEFV[Aib]WLEDEPSSGAPPPS-OH
modifications: N-terminus assumed
SMILES: CC(C)C[C@H](NC(=O)[C@H](Cc1c[nH]c2ccccc12)NC(=O)[C@H](CCCCN)NC(=O)[C@H](CO)NC(=O)[C@H](Cc1c[nH]cn1)NC(=O)[C@H](CC(=O)O)NC(=O)[C@H](CO)NC(=O)[C@@H](NC(=O)[C@H](Cc1ccccc1)NC(=O)[C@@H](NC(=O)CNC(=O)[C@H](Cc1c[nH]cn1)NC(=O)[C@H](CO)NC(=O)[C@@H](N)Cc1ccc(O)cc1)[C@@H](C)O)[C@@H](C)O)C(=O)N[C@@H](CC(=O)O)C(=O)NC(C)(C)C(=O)N[C@@H](CCCCN)C(=O)N[C@@H](CCCNC(=N)N)C(=O)N[C@@H](C)C(=O)N[C@@H](CCC(N)=O)C(=O)N[C@@H](CCC(=O)O)C(=O)N[C@@H](Cc1ccccc1)C(=O)N[C@H](C(=O)NC(C)(C)C(=O)N[C@@H](Cc1c[nH]c2ccccc12)C(=O)N[C@@H](CC(C)C)C(=O)N[C@@H](CCC(=O)O)C(=O)N[C@@H](CC(=O)O)C(=O)N[C@@H](CCC(=O)O)C(=O)N1CCC[C@H]1C(=O)N[C@@H](CO)C(=O)N[C@@H](CO)C(=O)NCC(=O)N[C@@H](C)C(=O)N1CCC[C@H]1C(=O)N1CCC[C@H]1C(=O)N1CCC[C@H]1C(=O)N[C@@H](CO)C(=O)O)C(C)C
B4: Compound A34 (peptide)
peptide: YTHGTFTSDHSKWLD[Aib]KRAQEFV[Aib]WLEDEPSSGAPPPS-OH
modifications: N-terminus assumed
SMILES: CC(C)C[C@H](NC(=O)[C@H](Cc1c[nH]c2ccccc12)NC(=O)[C@H](CCCCN)NC(=O)[C@H](CO)NC(=O)[C@H](Cc1c[nH]cn1)NC(=O)[C@H](CC(=O)O)NC(=O)[C@H](CO)NC(=O)[C@@H](NC(=O)[C@H](Cc1ccccc1)NC(=O)[C@@H](NC(=O)CNC(=O)[C@H](Cc1c[nH]cn1)NC(=O)[C@@H](NC(=O)[C@@H](N)Cc1ccc(O)cc1)[C@@H](C)O)[C@@H](C)O)[C@@H](C)O)C(=O)N[C@@H](CC(=O)O)C(=O)NC(C)(C)C(=O)N[C@@H](CCCCN)C(=O)N[C@@H](CCCNC(=N)N)C(=O)N[C@@H](C)C(=O)N[C@@H](CCC(N)=O)C(=O)N[C@@H](CCC(=O)O)C(=O)N[C@@H](Cc1ccccc1)C(=O)N[C@H](C(=O)NC(C)(C)C(=O)N[C@@H](Cc1c[nH]c2ccccc12)C(=O)N[C@@H](CC(C)C)C(=O)N[C@@H](CCC(=O)O)C(=O)N[C@@H](CC(=O)O)C(=O)N[C@@H](CCC(=O)O)C(=O)N1CCC[C@H]1C(=O)N[C@@H](CO)C(=O)N[C@@H](CO)C(=O)NCC(=O)N[C@@H](C)C(=O)N1CCC[C@H]1C(=O)N1CCC[C@H]1C(=O)N1CCC[C@H]1C(=O)N[C@@H](CO)C(=O)O)C(C)C
B5: Compound A35 (peptide)
peptide: YTHGTFTSDYSKWLD[Aib]ARAQEFV[Aib]WLEDEPSSGAPPPS-OH
modifications: N-terminus assumed
SMILES: CC(C)C[C@H](NC(=O)[C@H](Cc1c[nH]c2ccccc12)NC(=O)[C@H](CCCCN)NC(=O)[C@H](CO)NC(=O)[C@H](Cc1ccc(O)cc1)NC(=O)[C@H](CC(=O)O)NC(=O)[C@H](CO)NC(=O)[C@@H](NC(=O)[C@H](Cc1ccccc1)NC(=O)[C@@H](NC(=O)CNC(=O)[C@H](Cc1c[nH]cn1)NC(=O)[C@@H](NC(=O)[C@@H](N)Cc1ccc(O)cc1)[C@@H](C)O)[C@@H](C)O)[C@@H](C)O)C(=O)N[C@@H](CC(=O)O)C(=O)NC(C)(C)C(=O)N[C@@H](C)C(=O)N[C@@H](CCCNC(=N)N)C(=O)N[C@@H](C)C(=O)N[C@@H](CCC(N)=O)C(=O)N[C@@H](CCC(=O)O)C(=O)N[C@@H](Cc1ccccc1)C(=O)N[C@H](C(=O)NC(C)(C)C(=O)N[C@@H](Cc1c[nH]c2ccccc12)C(=O)N[C@@H](CC(C)C)C(=O)N[C@@H](CCC(=O)O)C(=O)N[C@@H](CC(=O)O)C(=O)N[C@@H](CCC(=O)O)C(=O)N1CCC[C@H]1C(=O)N[C@@H](CO)C(=O)N[C@@H](CO)C(=O)NCC(=O)N[C@@H](C)C(=O)N1CCC[C@H]1C(=O)N1CCC[C@H]1C(=O)N1CCC[C@H]1C(=O)N[C@@H](CO)C(=O)O)C(C)C
B6: Compound A36 (peptide)
peptide: YSHGTFTSDHSKWLD[Aib]ARAQEFV[Aib]WLEDEPSSGAPPPS-OH
modifications: N-terminus assumed
SMILES: CC(C)C[C@H](NC(=O)[C@H](Cc1c[nH]c2ccccc12)NC(=O)[C@H](CCCCN)NC(=O)[C@H](CO)NC(=O)[C@H](Cc1c[nH]cn1)NC(=O)[C@H](CC(=O)O)NC(=O)[C@H](CO)NC(=O)[C@@H](NC(=O)[C@H](Cc1ccccc1)NC(=O)[C@@H](NC(=O)CNC(=O)[C@H](Cc1c[nH]cn1)NC(=O)[C@H](CO)NC(=O)[C@@H](N)Cc1ccc(O)cc1)[C@@H](C)O)[C@@H](C)O)C(=O)N[C@@H](CC(=O)O)C(=O)NC(C)(C)C(=O)N[C@@H](C)C(=O)N[C@@H](CCCNC(=N)N)C(=O)N[C@@H](C)C(=O)N[C@@H](CCC(N)=O)C(=O)N[C@@H](CCC(=O)O)C(=O)N[C@@H](Cc1ccccc1)C(=O)N[C@H](C(=O)NC(C)(C)C(=O)N[C@@H](Cc1c[nH]c2ccccc12)C(=O)N[C@@H](CC(C)C)C(=O)N[C@@H](CCC(=O)O)C(=O)N[C@@H](CC(=O)O)C(=O)N[C@@H](CCC(=O)O)C(=O)N1CCC[C@H]1C(=O)N[C@@H](CO)C(=O)N[C@@H](CO)C(=O)NCC(=O)N[C@@H](C)C(=O)N1CCC[C@H]1C(=O)N1CCC[C@H]1C(=O)N1CCC[C@H]1C(=O)N[C@@H](CO)C(=O)O)C(C)C
B7: Compound A37 (peptide)
peptide: YSHGTFTSDYSKYLDSARAQEFVKWLEDEPSSGAPPPS-OH
B8: Compound A38 (peptide)
peptide: YSHGTFTSDYSKWLDSARAQEFVKWLEDEPSSGAPPPS-OH
B9: Compound A39 (peptide)
peptide: YTHGTFTSDYSKWLDSARAQEFVKWLEDEPSSGAPPPS-OH
B10: Compound A40 (peptide)
peptide: YSHGTFTSDHSKWLDSARAQEFVKWLEDEPSSGAPPPS-OH
B11: Compound A41 (peptide)
peptide: YTHGTFTSDHSKWLDEARAQEFVKWLEDEPSSGAPPPS-OH
B12: Compound A42 (peptide)
peptide: YTHGTFTSDYSKWLDSKRAQEFVKWLEDEPSSGAPPPS-OH
B13: Compound A43 (peptide)
peptide: YSHGTFTSDYSKYLDKARAQEFVKWLEDEPSSGAPPPS-OH
B14: Compound A44 (peptide)
peptide: YSHGTFTSDYSKYLDQARAQEFVKWLEDEPSSGAPPPS-OH

Experiments:
[1] = biological target: human GLP-1 receptor (GLP-1R) (human, UniProt P43220 24-463); experiment: cell-based or functional assay
human GLP-1 receptor (GLP-1R), sequence (P43220 24-463): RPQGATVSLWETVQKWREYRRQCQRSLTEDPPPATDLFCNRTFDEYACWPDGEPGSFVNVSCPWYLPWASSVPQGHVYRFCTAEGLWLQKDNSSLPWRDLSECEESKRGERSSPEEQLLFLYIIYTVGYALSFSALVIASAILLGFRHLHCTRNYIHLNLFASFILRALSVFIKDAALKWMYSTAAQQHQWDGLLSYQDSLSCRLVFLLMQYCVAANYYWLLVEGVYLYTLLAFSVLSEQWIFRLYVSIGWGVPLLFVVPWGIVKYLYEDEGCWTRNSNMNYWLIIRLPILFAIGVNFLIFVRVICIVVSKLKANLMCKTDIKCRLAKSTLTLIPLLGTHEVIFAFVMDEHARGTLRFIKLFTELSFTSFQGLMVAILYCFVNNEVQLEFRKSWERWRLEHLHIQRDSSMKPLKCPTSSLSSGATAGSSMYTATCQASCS

[2] = biological target: human glucagon receptor (GCGR) (human, UniProt P47871 26-477); experiment: cell-based or functional assay

| Binder | hGLP1 pEC50 (cAMP) [1] [pEC50] | hGCGR pEC50 (cAMP) [2] [pEC50] |
| --- | --- | --- |
| B1 | < 9 | 11.7 |
| B2 | < 9 | 12.5 |
| B3 | < 9 | 10.9 |
| B4 | < 9 | 10.3 |
| B5 | < 9 | 13.2 |
| B6 | < 9 | 10.2 |
| B7 | < 9 | 13 |
| B8 | < 9 | 13.7 |
| B9 | < 9 | 9.4 |
| B10 | < 9 | 10.1 |
| B11 | < 9 | 9.2 |
| B12 | < 9 | 9.4 |
| B13 | < 9 | 11.8 |
| B14 | < 9 | 11.9 |
